This note sets out measurements from patent US20220362303A1.

The test concerns the target trypsin (T9253, Merck Life Sciences) (UniProt P00760). Put plainly: cell-based or functional assay.
T9253 sequence (P00760 24-246): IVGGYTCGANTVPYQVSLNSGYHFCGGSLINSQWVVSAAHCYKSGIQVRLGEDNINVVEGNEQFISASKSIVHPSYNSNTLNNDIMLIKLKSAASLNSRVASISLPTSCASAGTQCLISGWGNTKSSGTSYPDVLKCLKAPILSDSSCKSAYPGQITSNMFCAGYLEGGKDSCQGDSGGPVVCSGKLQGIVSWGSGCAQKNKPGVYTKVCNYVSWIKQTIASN

Take “Human EGF (Peprotech, New Jersey, USA) (from UniProt P01133 971-1023) (ligand)”: the µg trypsin inhibited by 1 mg sample (BAPNA trypsin inhibition assay) (µg trypsin inhibited by 1 mg sample) was determined as 1.43.

As for “Ovomucoid (Sigma, USA) (from UniProt P01005 25-210)”, the µg trypsin inhibited by 1 mg sample (BAPNA trypsin inhibition assay) (µg trypsin inhibited by 1 mg sample) came to 703.

calcium caseinate (C16) yielded a µg trypsin inhibited (BAPNA trypsin inhibition assay, casein at 0.1 mg/ml) (µg trypsin inhibited) of 0.34 and a µg trypsin inhibited by 1 mg sample (BAPNA trypsin inhibition assay) (µg trypsin inhibited by 1 mg sample) of 3.24.

Substance “soya bean trypsin inhibitor (SBTI, Roche, Calif., USA) (from UniProt P01070 25-205)” showed a µg trypsin inhibited by 1 mg sample (BAPNA trypsin inhibition assay) (µg trypsin inhibited by 1 mg sample) of 838.
